Where a chain is given by its changes, count along the chain named.
B1: mERE (mutant GCC box) (dsDNA)
DNA 1: GATCTCATAAGATCCTCCACTAAAATAAGACCGATCAAATAAGATCCTCCATG
DNA 2: GATCCATGGAGGATCTTATTTGATCGGTCTTATTTTAGTGGAGGATCTTATGA
B2: ERE (2x GCC box) (dsDNA)
DNA 1: B1 DNA 1 with T13G, T16G, T45G, T48G
DNA 2: B1 DNA 2 with A10C, A13C, A42C, A45C

Experiments:
ERF2 [1] = target: T1, ERF2 (Nicotiana tabacum, UniProt Q40479 Q40479:1-233); experiment: competition; 10 ng unlabeled mERE did not inhibit ERF2-ERE complex; conditions: tags: His tag (pET15b, Novagen); GATC 5' overhangs
From the text: The binding activity of ERF2 to ERE was investigated using gel-shift assays. The DNA fragment containing a 53 bp wild-type ethylene-responsive element (ERE) was used as a DNA probe after labeled with a radioactive tracer using (γ^-32P)ATP and T4-polynucleotide kinase (Takara Bio INC., Kyoto, Japan). Multi-copied and linked ERE (SEQ ID NO: 3 and 4) or mERE (SEQ ID NO: 5 and 6) fragments (FIG. 1) were used as wild-type and mutant-type competitors, respectively. mERE (mutant-type) was similar to ERE (wild-type), except that the DNA nucleotide sequence in the GCC box contains base substitutions. The mixture of 1 ng of radio-labeled DNA probe (1,000 to 10,000 cpm) and 10 ng of recombinant ERF without or with 10 ng of a competitor DNA in 10 µl of the binding buffer shown in Table 1 was incubated for 45 minutes at 25° C.
The samples after binding reaction were subjected to 4% polyacrylamide gel electrophoresis (acrylamide:bisacrylamide=39:1, 1 mm in thickness, 13 cm long) containing 0.25×TB buffer (22.5 mM Tris-borate, pH 8.0) at 25° C. for 3 hrs at 100 V. The gel was dried and exposed to Fuji Imaging Plate® (Fuji Photo Film Co. Ltd., Kanagawa, JAPAN; a radiosensitive layer of phosphor crystals on a polyester backing plate). The electrophoresis mobility pattern was visualized using Bio-Image Analyzer (Fuji Photo Film Co. Ltd., Kanagawa, JAPAN). […]

ERF4 = ERF4 (Nicotiana tabacum, UniProt Q40478 Q40478:1-291); experiment: in vitro transcription activation of pERE in HeLa nuclear extract; conditions: tags: His tag (pET15b, Novagen); label: 32P 5' end; GATC 5' overhangs
Protocol: (§1) Moreover, the in vitro transcription reaction was assayed in the following way. The HeLa nuclear extracts used for the in vitro transcription were prepared as reported previously (Meth. Enzymol. 101:582–598(1983)).
(§2) The transcription reaction mixture was incubated for 60 min at 30° C. and 75 µl of the reaction stopping solution (Table 2) was added to stop the reaction. Then, 100 µl of PCIAA (50% phenol, 48% chloroform, 2% isoamilalcohol) was added to the reaction mixture to recover the aqueous phase. After that, 100 µl of CIAA (96% chloroform, 4% isoamilalcohol) was added to the aqueous phase and the aqueous phase was recovered. Then, 10 µl of 3 M sodium acetate and 300 µl of ethyl alcohol were added to the aqueous phase to precipitate nucleic acid. The nucleic acid was dried and was dissolved in 10 µl of urea solution (5M urea, 1 mM EDTA, 0.1% bromophenol blue). The nucleic acid sample was subjected to electrophoresis using 6% polyacrylamide gel (acrylamide:bisacrylamide=19:1, 1 mm of thickness, 12.5 cm long) containing 89 mM Tris-borate (pH 8.3), 2 mM EDTA and 8 M urea at 300 V. When bromophenol blue in the sample had migrated to the lowest edge of the gel, the gel was removed and was soaked in 1 L of water containing 5% methanol and 5% acetic acid and then in 1 L of water containing 5% methanol, each for 20 min. Then, the gel was attached to a filter paper, dried and exposed to Fuji Imaging Plate overnight. RNA was visualized using Bio Image Analyzer.
(§3) As in the case of reference example 2, the inventors examined the activity of transcriptional activation of other ERFs. […] The activity of transcriptional activation of each ERF was as follows; amplification by ERF3, 3 fold; that by ERF4, 3.5 fold; that by ERF1, 4 fold; that by ERF2, 5 fold.

ERF3 = ERF3 (Nicotiana tabacum, UniProt Q40477 Q40477:1-225); experiment: as above; conditions: tags: His tag (pET15b, Novagen); label: 32P 5' end; GATC 5' overhangs
Protocol: as §1, §2, §3

ERF1 = ERF1 (Nicotiana tabacum, UniProt Q40476 Q40476:1-236); experiment: as above; conditions: tags: His tag (pET15b, Novagen); label: 32P 5' end; GATC 5' overhangs
Protocol: as §1, §2, §3

ERF2 [2] = target: T1, ERF2; experiment: in vitro transcription activation of pERE in HeLa nuclear extract with tTBP; conditions: tags: His tag (pET15b, Novagen); label: 32P 5' end; GATC 5' overhangs
Protocol: as §1
as §2, with “Then, the gel was attached to a filter paper, dried and exposed to Fuji Imaging Plate overnight. RNA was visualized using Bio Image Analyzer.” left out

T1 sequence (Q40479 whole entry, the tested form may be a part, one chain of several): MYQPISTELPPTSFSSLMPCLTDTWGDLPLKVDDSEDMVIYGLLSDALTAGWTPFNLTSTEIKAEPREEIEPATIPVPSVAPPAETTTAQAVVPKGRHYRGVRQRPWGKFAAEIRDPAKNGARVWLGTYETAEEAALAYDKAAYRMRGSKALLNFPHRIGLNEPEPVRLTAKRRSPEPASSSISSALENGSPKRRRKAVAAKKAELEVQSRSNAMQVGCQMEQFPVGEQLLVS
ERF3, sequence (Q40477 whole entry, one chain of several): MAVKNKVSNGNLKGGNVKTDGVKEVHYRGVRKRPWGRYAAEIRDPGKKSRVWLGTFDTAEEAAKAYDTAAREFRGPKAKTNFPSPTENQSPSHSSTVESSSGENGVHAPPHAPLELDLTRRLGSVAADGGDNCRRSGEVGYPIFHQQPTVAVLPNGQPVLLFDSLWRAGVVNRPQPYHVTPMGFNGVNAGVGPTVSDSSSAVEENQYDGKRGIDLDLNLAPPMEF
ERF4, sequence (Q40478 whole entry, one chain of several): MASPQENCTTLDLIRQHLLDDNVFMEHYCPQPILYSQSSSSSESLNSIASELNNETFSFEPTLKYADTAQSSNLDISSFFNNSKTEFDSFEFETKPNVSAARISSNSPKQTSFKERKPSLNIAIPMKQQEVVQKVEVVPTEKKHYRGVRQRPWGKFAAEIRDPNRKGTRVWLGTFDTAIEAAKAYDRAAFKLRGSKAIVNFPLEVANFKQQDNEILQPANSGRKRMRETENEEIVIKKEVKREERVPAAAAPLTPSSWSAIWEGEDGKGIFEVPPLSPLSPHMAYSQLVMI
ERF1, sequence (Q40476 whole entry, one chain of several): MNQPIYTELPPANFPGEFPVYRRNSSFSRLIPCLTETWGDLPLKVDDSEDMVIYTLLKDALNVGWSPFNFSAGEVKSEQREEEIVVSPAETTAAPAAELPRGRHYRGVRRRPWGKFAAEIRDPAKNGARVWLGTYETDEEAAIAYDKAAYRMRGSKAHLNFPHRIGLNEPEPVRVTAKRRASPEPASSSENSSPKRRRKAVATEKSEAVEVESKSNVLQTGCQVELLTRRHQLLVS

Binder	binding result (ERF2 [1])	activity (ERF4)	activity (ERF3)	activity (ERF1)	activity (ERF2 [2])
B1	no binding				
B2		3.5 fold	3 fold	4 fold	5 fold
